Measurements reported in the DeepSol protein solubility set.

Assay: soluble on expression in E. coli; label from the status in PepcDB or PDB records

Sequence	soluble on expression in E. coli
MTISRTQQIQQLEQEWTSPRWKNITRPYSAEDVIKLRGSVNPECTFAQNGAKKLWELLHGGSRKGYINCLGALTGGQALQQAKAGVEAIYMSGWQVAADANTASSMYPDQSLYPVDSVPAVVKRINNSFRRADQIQWSNNIEPGSKGYTDYFLPIVADAEAGFGGVLNAFELMKAMIEAGAAGVHFEDQLAAVKKCGHMGGKVLVPTQEAIQKLVAARLAADVLGVPTLLIARTDADAADLLTSDCDPYDREFITGDRTAEGFFRTRAGIEQAISRGLAYAPYADLVWCETSTPDLALAKRFADAVHAQFPGKLLAYNCSPSFNWKKNLTDQQIASFQDELSAMGYKYQFITLAGIHSMWFNMFDLAHAYAQGEGMKHYVEKVQQPEFASVDRGYTFASHQQEVGTGYFDKVTNIIQGGASSVTALTGSTEEQQF	soluble
MTITSLDGYRWLKNDIIRGNFQPDEKLRMSLLTSRYALGVGPLREALSQLVAERLVTVVNQKGYRVASMSEQELLDIFDARANMEAMLVSLAIARGGDEWEADVLAKAHLLSKLEACDASEKMLDEWDLRHQAFHTAIVAGCGSHYLLQMRERLFDLAARYRFIWLRRTVLSVEMLEDKHDQHQTLTAAVLARDTARASELMRQHLLTPIPIIQQAMAGN	soluble
MTKAKDLTGKKIAILAADGVEEIELTSPRAAIEAAGGTTELISLEPGEIQSMKGDIEPQEKYRVDHVVSEVQVSDYDGLLLPGGTVNPDKLRLEEGAMKFVRDMYDAGKPIAAICHGPWSLSETGIAQGLKMTSWSSLKRELTLAGAQWVDEECVTDKGVVTSRKPDDLPAFNKKIVEEFAEGDHSSRRK	soluble
MTKFESSVKVIPYSQERVYEKLADLSNLEAIKDRLPEDKVKNMSFDTDTLSFNVDPVGQLTLRIIEREPSKCIKFETTNSPLPFNMWIQLVAVSEEECKLKVTIGLEINPFMKAMVQKPLNEGLEKMADMLSMIQYLEHHHHHH	soluble
MTKFIGCIDLHNGEVKQIVGGTLTSKKEDVPKTNFVSQHPSSYYAKLYKDRDVQGCHVIKLGPNNDDAAREALQESPQFLQVGGGINDTNCLEWLKWASKVIVTSWLFTKEGHFQLKRLERLTELCGKDRIVVDLSCRKTQDGRWIVAMNKWQTLTDLELNADTFRELRKYTNEFLIHAADVEGLCGGIDELLVSKLFEWTKDYDDLKIVYAGGAKSVDDLKLVDELSHGKVDLTFGSSLDIFGGNLVKFEDCCRWNEKQG	soluble
MTKFVAKKAILLLSLLLLGTAESKPLDAEQQHIDDQHVRKERQLKMAGSADPDVKMVANVTPATGSQPMSMTMGVPMNQMALSSVGGQLVRYPNYPGLIYPGLAPAPGLNGVPGLQTNIANNYPSYPDPNLTGSVPGFNPFGSFGYPGVAPMYGNSLMYPNPQLPNGFVPNPAVDNFQSLNNIVNMANVQGLAGGSSGIYPAPQGFGGVSPGLYPAPQGFGGANPGLYPAPQVNMQGLYPPSGGFLERMNMQGYAPGFLEHHHHHH	not soluble
MTKIFIRDDNGGTEMSQDPFQEREAEKYANPIPSREFILEHLTKREKPASRDELAVELHIEGEEQLEGLRRRLRAMERDGQLVFTRRQCYALPERLDLVKGTVIGHRDGYGFLRVEGRKDDLYLSSEQMKTCIHGDQVLAQPLGADRKGRREARIVRVLVPKTSQIVGRYFTEAGVGFVVPDDSRLSFDILIPPDQIMGARMGFVVVVELTQRPTRRTKAVGKIVEVLGDNMGTGMAVDIALRTHEIPYIWPQAVEQQVAGLKEEVPEEAKAGRVDLRDLPLVTIDGEDARDFDDAVYCEKKRGGGWRLWVAIADVSYYVRPSTPLDREARNRGTSVYFPSQVIPMLPEVLSNGLCSLNPQVDRLCMVCEMTVSSKGRLTGYKFYEAVMSSHARLTYTKVWHILQGDQDLREQYAPLVKHLEELHNLYKVLDKAREERGGISFESEEAKFIFNAERRIERIEQTQRNDAHKLIEECMILANISAARFVEKAKEPALFRIHDKPSTEAITSFRSVLAELGLELPGGNKPEPRDYAELLESVADRPDAEMLQTMLLRSMKQAIYDPENRGHFGLALQSYAHFTSPIRRYPDLTLHRAIKYLLAKEQGHQGNTTETGGYHYSMEEMLQLGQHCSMAERRADEATRDVADWLKCDFMLDQVGNVFKGVISSVTGFGFFVRLDDLFIDGLVHVSSLDNDYYRFDQVGQRLMGESSGQTYRLGDRVEVRVEAVNMDERKIDFSLISSERAPRNVGKTAREKAKKGDAGKKGGKRRQVGKKVNFEPDSAFRGEKKTKPKAAKKDARKAKKPSAKTQKIAAATKAKRAAKKKVAELEHHHHHH	soluble
MTKIIPVASGKGGVGKTSFVANVGYKLSSLGKTVILVDLDLGGSNLHTCLGVKNKGVGIGSFINKKSKSFSDLVCKTSYDKLYLIPGDALYTGTANLPFSIKKKIIESIQKDLIADFIFLDLGSGTSYNTIDFYLASYSGVIVTIPETPSILNAYSFLKNALYRLLYLGFPQKSPERDYIGNFFKDKIEGTNLGFKDLVVGIELISLSSSLKVKRMMNNFYPRVVLNRIETSEEIAMCENLINVVKNNINIPIEFIGFVPFAKSFREAINNRVPFIDFEKNSKLNKYFEFIAGNLIKSPIEGSPYIYDDIYDMIKDQSRFIRKLEHHHHHH	soluble
MTKKYSRFLPSEKSFNIDNFPYYWVTQVHSQYVHNIDNVLKRYGLDNSRRRILLALNIKQNASVSELSEMIISKMSTTTKIVYRLKDEGFVNTYSCENDARITRVNLTEQGKEMIHKINSLTGAVLEQSFEGLTPLQIEKMIDGLKIIFKNLSS	not soluble
MTKMLKLFDAHFHIIDYRFPLITNQSYLPPEFTVEDYLQRAKPLNICGGAVVSGSFQAFDQSYLLAALSILGSDFVGVTQLPATVSDEEIIQLNQKGIRAVRFNVKRGGSENIHRLKYFAHRIYEMVRWHVEIYVDSKDLGDLTSLLLELPAVSIDHLGLSHSGFSQLLHLVEHGIKIKASGFGRVDFDVKKALQTIAQINPDALLFGTDLPSTRAPRPFLDSDIQIIQDLFDEKLTEKILYRNARNFYSKNSSELEHHHHHH	not soluble
MTKNLLVELGLEELPAYVVTPSEKQLGEKMAAFLKGKRLSFEAIQTFSTPRRLAVRVTGLADKQSDLTEDFKGPAKKIALDSDGNFTKAAQGFVRGKGLTVEDIEFREIKGEEYVYVTKEEIGQAVEAIVPGIVDVLKSLTFPVSMHWAGNSFEYIRPVHTLTVLLDEQEFDLDFLDIKGSRVSRGHRFLGQETKIQSALSYEEDLRKQFVIADPCEREQMIVDQIKEIEAKHGVRIEIDADLLNEVLNLVEYPTAFMGSFDAKYLEVPEEVLVTSMKEHQRYFVVRDQDGKLLPNFISVRNGNAERLKNVIKGNEKVLVARLEDGEFFWREDQKLVISDLVEKLNNVTFHEKIGSLREHMIRTGQITVLLAEKASLSVDETVDLARAAAIYKFDLLTGMVGEFDELQGIMGEKYTLLAGETPAVAAAIREHYMPTSAEGELPESKVGAVLAIADKLDTILSFFSVGLIPSGSNDPYALRRATQGVVRILDAFGWHIAMDELIDSLYALKFDSLTYENKAEVMDFIKARVDKMMGSTPKDIKEAVLAGSNFV	not soluble
MTKPLILASQSPRRKELLDLLQLPYSIIVSEVEEKLNRNFSPEENVQWLAKQKAKAVADLHPHAIVIGADTMVCLDGECLGKPQDQEEAASMLRRLSGRSHSVITAVSIQAENHSETFYDKTEVAFWSLSEEEIWTYIETKEPMDKAGAYGIQGRGALFVKKIDGDYYSVMGLPISKTMRALRHFDIRA	soluble
MTKPVVDVKNVQKVYGKKGENQSHALKGVSFSIQEGEFVGIMGPSGSGKTTLLNVISTLDKATGGVVEIAGTDITKMKQGELSDFRSQKLGFIFQDFNLLENLSIYENIALPLSLQGVPSRNIGPKVEKVADMLGISAILQKYPSEVSGGQKQRSAAARALVHEPAIILGDEPTGALDSKNATSLLDAMTNLNQEQGVSIMMVTHDPFSASYCQRILFIQDGELYKEIHRGGTREEFYKEILDVLADLGTQKA	not soluble
MTKQPPIAKADLQKTQGNRAPAAVKNSDVISFINQPSMKEQLAAALPRHMTAERMIRIATTEIRKVPALGNCDTMSFVSAIVQCSQLGLEPGSALGHAYLLPFGNKNEKSGKKNVQLIIGYRGMIDLARRSGQIASLSARVVREGDEFSFEFGLDEKLIHRPGENEDAPVTHVYAVARLKDGGTQFEVMTRKQIELVRSLSKAGNNGPWVTHWEEMAKKTAIRRLFKYLPVSIEIQRAVSMDEKEPLTIDPADSSVLTGEYSVIDNSEE	soluble
MTKTLPKDFIFGGATAAYQAEGATHTDGKGPVAWDKYLEDNYWYTAEPASDFYHKYPVDLELAEEYGVNGIRISIAWSRIFPTGYGEVNEKGVEFYHKLFAECHKRHVEPFVTLHHFDTPEALHSNGDFLNRENIEHFIDYAAFCFEEFPEVNYWTTFNEIGPIGDGQYLVGKFPPGIKYDLAKVFQSHHNMMVSHARAVKLYKDKGYKGEIGVVHALPTKYPYDPENPADVRAAELEDIIHNKFILDATYLGHYSDKTMEGVNHILAENGGELDLRDEDFQALDAAKDLNDFLGINYYMSDWMQAFDGETEIIHNGKGEKGSSKYQIKGVGRRVAPDYVPRTDWDWIIYPEGLYDQIMRVKNDYPNYKKIYITCNGLGYKDEFVDNTVYDDGRIDYVKQHLEVLSDAIADGANVKGYFIWSLMDVFSWSNGYEKRYGLFYVDFDTQERYPKKSAHWYKKLAETQVIE	soluble
MTKVTEHLEKQLAENRVKQEEARRAREEEKQRSDNAFNNAERAFERKLEEQRKENQENQKELELEMDNSRLKHEMLYREKQKEHEDVMGAMRNASSAERSAAANMHEKELNLLRKTHESEMKNCEVQMEAIRQKGEREVRDVEDQMAKLHLERGAELDKHHKKMLKMVEKSHEDCTREKVKQHALKMLEMKNEGQRKAIEHKIVMEKLEQARGMSQRLAVNEANREVYRLFMAIMEPVNEARSNLGDIKALCDNNGEDYEDSDTACAEYYSSGIGNSRSIFDIRTNAFRDFVLNQPNCDHELVIACQTAINSMKKPMESTTIRSACTTLPRFMGEQRHLRITAILQNIDDLTSTLEAISDDVRLNFVSWKQLEIVEAVVEQKTIEKE	soluble
MTKYRLHYFNARGYAEASRAMFHMAGVEFEDVRYEIDDWIKEENTLKNEMPFGQMPVLEVDGEKIPQSVAIARFVANQLGFAGQTPVEKAWADAFTDLYKDFLIDMKPWAMIAFGYPGAAGDRDELKKTSLDPAKEKYFKLLSKRLEKSKSGFLLDSGISFPDLFFFETTTSLIELEKGFLGTDFPVVNAYFKRIAEHPKLKPYLETRPYSSK	not soluble
MTLKFSVERLVDSEKESEEADVEEQNNLKKLEEDEEDDELCEKSGKNEPLSQTLSYFDVLLPHVQMACSNPFISGIGASGSGDQNLNTGAGGSVWQHPWLELLQSTTAAQFGDVTAGLFLQPLRKNKRIRTAFSASQLIQLEKAFEGNHYVVGNERKQLAAKLSLTETQVKVWFQNRRTKHKRVRLEGSDPNAPMSNDEDDEDDKKSVS	not soluble
MTLKLIENLQKLGFTGNEAKVYSSLVCLKQAKASEIAENAGVPRPKIYGTLRTMEKKGYVRIIEGEPTIFCCIQPEELILRLKSDFLLFLRETASELNSLNPGNSDFVSEGFYRERIKV	not soluble
MTLPRFDQIRPKIEQHIREVKDFPKKGINFRDIMPLFTNPQLVNELCVVIADHVRHTVGHVDSVAGLEARGFLFGPQVAIQLGVPFVPIRKKGKLPGATIEASYVKEYGEDRVEIQEGAIKNGDIVFLIDDLLATGGTLRAATDLVVKAGGKVGEAFVLIELAPLNGRSKLPDVNLTTLISYDSA	not soluble
